Target: T1, His-Flag-DBR1 (human, UniProt Q9UK59 1-544)
T1 sequence (looked up): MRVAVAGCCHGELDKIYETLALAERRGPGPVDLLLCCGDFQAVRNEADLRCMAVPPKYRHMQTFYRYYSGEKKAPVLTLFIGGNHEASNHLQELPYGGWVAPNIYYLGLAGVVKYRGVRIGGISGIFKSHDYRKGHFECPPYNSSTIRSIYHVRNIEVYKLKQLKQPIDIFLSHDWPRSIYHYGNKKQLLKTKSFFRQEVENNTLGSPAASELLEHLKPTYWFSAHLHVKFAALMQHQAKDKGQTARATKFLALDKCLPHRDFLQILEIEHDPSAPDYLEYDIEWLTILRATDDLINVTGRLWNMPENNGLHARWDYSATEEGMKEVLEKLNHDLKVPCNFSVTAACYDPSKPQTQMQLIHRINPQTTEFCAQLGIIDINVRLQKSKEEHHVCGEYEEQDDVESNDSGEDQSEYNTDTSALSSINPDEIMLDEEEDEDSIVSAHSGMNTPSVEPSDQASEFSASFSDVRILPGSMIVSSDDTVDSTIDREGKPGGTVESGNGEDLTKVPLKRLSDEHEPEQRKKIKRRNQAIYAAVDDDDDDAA
Test: pull-down

B1: GST-TTDN1 (natural protein, human, UniProt Q8TAP9 1-179, looked up)
chain: MQRQNFRPPTPPYPGPGGGGWGSGSSFRGTPGGGGPRPPSPRDGYGSPHHTPPYGPRSRPYGSSHSPRHGGSFPGGRFGSPSPGGYPGSYSRSPAGSQQQFGYSPGQQQTHPQGSPRTSTPFGSGRVREKRMSNELENYFKPSMLEDPWAGLEPVSVVDISQQYSNTQTFTGKKGRYFC
B1: binds.

Source: article PMC10483886 (Molecular cell, 2023)
